B1: GTF2A1L (protein, UniProt Q9UNN4 1-478, looked up)
TFIIA-alpha and beta-like …: MACLNPVPKLYRSVIEDVIEGVRNLFAEEGIEEQVLKDLKQLWETKVLQSKATEDFFRNSIQSPLFTLQLPHSLHQTLQSSTASLVIPAGRTLPSFTTAELGTSNSSANFTFPGYPIHVPAGVTLQTVSGHLYKVNVPIMVTETSGRAGILQHPIQQVFQQLGQPSVIQTSVPQLNPWSLQATTEKSQRIETVLQQPAILPSGPVDRKHLENATSDILVSPGNEHKIVPEALLCHQESSHYISLPGVVFSPQVSQTNSNVESVLSGSASMAQNLHDESLSTSPHGALHQHVTDIQLHILKNRMYGCDSVKQPRNIEEPSNIPVSEKDSNSQVDLSIRVTDDDIGEIIQVDGSGDTSSNEEIGSTRDADENEFLGNIDGGDLKVPEEEADSISNEDSATNSSDNEDPQVNIVEEDPLNSGDDVSEQDVPDLFDTDNVIVCQYDKIHRSKNKWKFYLKDGVMCFGGRDYVFAKAIGDAEW
B2: GRHL3 (protein, UniProt Q8TE85 1-626, looked up)
Grainyhead-like protein 3 …: MSNELDFRSVRLLKNDPVNLQKFSYTSEDEAWKTYLENPLTAATKAMMRVNGDDDSVAALSFLYDYYMGPKEKRILSSSTGGRNDQGKRYYHGMEYETDLTPLESPTHLMKFLTENVSGTPEYPDLLKKNNLMSLEGALPTPGKAAPLPAGPSKLEAGSVDSYLLPTTDMYDNGSLNSLFESIHGVPPTQRWQPDSTFKDDPQESMLFPDILKTSPEPPCPEDYPSLKSDFEYTLGSPKAIHIKSGESPMAYLNKGQFYPVTLRTPAGGKGLALSSNKVKSVVMVVFDNEKVPVEQLRFWKHWHSRQPTAKQRVIDVADCKENFNTVEHIEEVAYNALSFVWNVNEEAKVFIGVNCLSTDFSSQKGVKGVPLNLQIDTYDCGLGTERLVHRAVCQIKIFCDKGAERKMRDDERKQFRRKVKCPDSSNSGVKGCLLSGFRGNETTYLRPETDLETPPVLFIPNVHFSSLQRSGGAAPSAGPSSSNRLPLKRTCSPFTEEFEPLPSKQAKEGDLQRVLLYVRRETEEVFDALMLKTPDLKGLRNAISEKYGFPEENIYKVYKKCKRGETSLLHPRLSRHPPPDCLECSHPVTQVRNMGFGDGFWRQRDLDSNPSPTTVNSLHFTVNSE
B3: HAND1 (protein, UniProt O96004 1-215, looked up)
Heart- and neural crest …: MNLVGSYAHHHHHHHPHPAHPMLHEPFLFGPASRCHQERPYFQSWLLSPADAAPDFPAGGPPPAAAAAATAYGPDARPGQSPGRLEALGGRLGRRKGSGPKKERRRTESINSAFAELRECIPNVPADTKLSKIKTLRLATSYIAYLMDVLAKDAQSGDPEAFKAELKKADGGRESKRKRELQQHEGFPPALGPVEKRIKGRTGWPQQVWALELNQ
B4: HDAC11 (protein, UniProt Q96DB2 1-347, looked up)
Histone deacetylase 11: MLHTTQLYQHVPETRWPIVYSPRYNITFMGLEKLHPFDAGKWGKVINFLKEEKLLSDSMLVEAREASEEDLLVVHTRRYLNELKWSFAVATITEIPPVIFLPNFLVQRKVLRPLRTQTGGTIMAGKLAVERGWAINVGGGFHHCSSDRGGGFCAYADITLAIKFLFERVEGISRATIIDLDAHQGNGHERDFMDDKRVYIMDVYNRHIYPGDRFAKQAIRRKVELEWGTEDDEYLDKVERNIKKSLQEHLPDVVVYNAGTDILEGDRLGGLSISPAGIVKRDELVFRMVRGRRVPILMVTSGGYQKRTARIIADSILNLFGLGLIGPESPSVSAQNSDTPLLPPAVP
B5: HDAC8 (protein, UniProt Q9BY41 1-377, looked up)
Histone deacetylase 8: MEEPEEPADSGQSLVPVYIYSPEYVSMCDSLAKIPKRASMVHSLIEAYALHKQMRIVKPKVASMEEMATFHTDAYLQHLQKVSQEGDDDHPDSIEYGLGYDCPATEGIFDYAAAIGGATITAAQCLIDGMCKVAINWSGGWHHAKKDEASGFCYLNDAVLGILRLRRKFERILYVDLDLHHGDGVEDAFSFTSKVMTVSLHKFSPGFFPGTGDVSDVGLGKGRYYSVNVPIQDGIQDEKYYQICESVLKEVYQAFNPKAVVLQLGADTIAGDPMCSFNMTPVGIGKCLKYILQWQLATLILGGGGYNLANTARCWTYLTGVILGKTLSSEIPDHEFFTAYGPDYVLEITPSCRPDRNEPHRIQQILNYIKGNLKHVV
B6: HELIOS (protein, UniProt Q9UKS7 1-526, looked up)
Zinc finger protein Helios: METEAIDGYITCDNELSPEREHSNMAIDLTSSTPNGQHASPSHMTSTNSVKLEMQSDEECDRKPLSREDEIRGHDEGSSLEEPLIESSEVADNRKVQELQGEGGIRLPNGKLKCDVCGMVCIGPNVLMVHKRSHTGERPFHCNQCGASFTQKGNLLRHIKLHSGEKPFKCPFCSYACRRRDALTGHLRTHSVGKPHKCNYCGRSYKQRSSLEEHKERCHNYLQNVSMEAAGQVMSHHVPPMEDCKEQEPIMDNNISLVPFERPAVIEKLTGNMGKRKSSTPQKFVGEKLMRFSYPDIHFDMNLTYEKEAELMQSHMMDQAINNAITYLGAEALHPLMQHPPSTIAEVAPVISSAYSQVYHPNRIERPISRETADSHENNMDGPISLIRPKSRPQEREASPSNSCLDSTDSESSHDDHQSYQGHPALNPKRKQSPAYMKEDVKALDTTKAPKGSLKDIYKVFNGEGEQIRAFKCEHCRVLFLDHVMYTIHMGCHGYRDPLECNICGYRSQDRYEFSSHIVRGEHTFH
B7: GTF2A1 (protein, UniProt P52655 2-376, looked up)
Transcription initiation …: ANSANTNTVPKLYRSVIEDVINDVRDIFLDDGVDEQVLMELKTLWENKLMQSRAVDGFHSEEQQLLLQVQQQHQPQQQQHHHHHHHQQAQPQQTVPQQAQTQQVLIPASQQATAPQVIVPDSKLIQHMNASNMSAAATAATLALPAGVTPVQQILTNSGQLLQVVRAANGAQYIFQPQQSVVLQQQVIPQMQPGGVQAPVIQQVLAPLPGGISPQTGVIIQPQQILFTGNKTQVIPTTVAAPTPAQAQITATGQQQPQAQPAQTQAPLVLQVDGTGDTSSEEDEDEEEDYDDDEEEDKEKDGAEDGQVEEEPLNSEDDVSDEEGQELFDTENVVVCQYDKIHRSKNKWKFHLKDGIMNLNGRDYIFSKAIGDAEW
B8: GTF2IRD1 (protein, UniProt Q9UHL9 1-959, looked up)
General transcription factor …: MALLGKRCDVPTNGCGPDRWNSAFTRKDEIITSLVSALDSMCSALSKLNAEVACVAVHDESAFVVGTEKGRMFLNARKELQSDFLRFCRGPPWKDPEAEHPKKVQRGEGGGRSLPRSSLEHGSDVYLLRKMVEEVFDVLYSEALGRASVVPLPYERLLREPGLLAVQGLPEGLAFRRPAEYDPKALMAILEHSHRIRFKLKRPLEDGGRDSKALVELNGVSLIPKGSRDCGLHGQAPKVPPQDLPPTATSSSMASFLYSTALPNHAIRELKQEAPSCPLAPSDLGLSRPMPEPKATGAQDFSDCCGQKPTGPGGPLIQNVHASKRILFSIVHDKSEKWDAFIKETEDINTLRECVQILFNSRYAEALGLDHMVPVPYRKIACDPEAVEIVGIPDKIPFKRPCTYGVPKLKRILEERHSIHFIIKRMFDERIFTGNKFTKDTTKLEPASPPEDTSAEVSRATVLDLAGNARSDKGSMSEDCGPGTSGELGGLRPIKIEPEDLDIIQVTVPDPSPTSEEMTDSMPGHLPSEDSGYGMEMLTDKGLSEDARPEERPVEDSHGDVIRPLRKQVELLFNTRYAKAIGISEPVKVPYSKFLMHPEELFVVGLPEGISLRRPNCFGIAKLRKILEASNSIQFVIKRPELLTEGVKEPIMDSQGTASSLGFSPPALPPERDSGDPLVDESLKRQGFQENYDARLSRIDIANTLREQVQDLFNKKYGEALGIKYPVQVPYKRIKSNPGSVIIEGLPPGIPFRKPCTFGSQNLERILAVADKIKFTVTRPFQGLIPKPDEDDANRLGEKVILREQVKELFNEKYGEALGLNRPVLVPYKLIRDSPDAVEVTGLPDDIPFRNPNTYDIHRLEKILKAREHVRMVIINQLQPFAEICNDAKVPAKDSSIPKRKRKRVSEGNSVSSSSSSSSSSSSNPDSVASANQISLVQWPMYMVDYAGLNVQLPGPLNY
B9: GTF2I (protein, UniProt P78347 2-998, looked up)
General transcription factor …: AQVAMSTLPVEDEESSESRMVVTFLMSALESMCKELAKSKAEVACIAVYETDVFVVGTERGRAFVNTRKDFQKDFVKYCVEEEEKAAEMHKMKSTTQANRMSVDAVEIETLRKTVEDYFCFCYGKALGKSTVVPVPYEKMLRDQSAVVVQGLPEGVAFKHPENYDLATLKWILENKAGISFIIKRPFLEPKKHVGGRVMVTDADRSILSPGGSCGPIKVKTEPTEDSGISLEMAAVTVKEESEDPDYYQYNIQAGPSETDDVDEKQPLSKPLQGSHHSSEGNEGTEMEVPAEDSTQHVPSETSEDPEVEVTIEDDDYSPPSKRPKANELPQPPVPEPANAGKRKVREFNFEKWNARITDLRKQVEELFERKYAQAIKAKGPVTIPYPLFQSHVEDLYVEGLPEGIPFRRPSTYGIPRLERILLAKERIRFVIKKHELLNSTREDLQLDKPASGVKEEWYARITKLRKMVDQLFCKKFAEALGSTEAKAVPYQKFEAHPNDLYVEGLPENIPFRSPSWYGIPRLEKIIQVGNRIKFVIKRPELLTHSTTEVTQPRTNTPVKEDWNVRITKLRKQVEEIFNLKFAQALGLTEAVKVPYPVFESNPEFLYVEGLPEGIPFRSPTWFGIPRLERIVRGSNKIKFVVKKPELVISYLPPGMASKINTKALQSPKRPRSPGSNSKVPEIEVTVEGPNNNNPQTSAVRTPTQTNGSNVPFKPRGREFSFEAWNAKITDLKQKVENLFNEKCGEALGLKQAVKVPFALFESFPEDFYVEGLPEGVPFRRPSTFGIPRLEKILRNKAKIKFIIKKPEMFETAIKESTSSKSPPRKINSSPNVNTTASGVEDLNIIQVTIPDDDNERLSKVEKARQLREQVNDLFSRKFGEAIGMGFPVKVPYRKITINPGCVVVDGMPPGVSFKAPSYLEISSMRRILDSAEFIKFTVIRPFPGLVINNQLVDQSESEGPVIQESAEPSQLEVPATEEIKETDGSSQIKQEPDPTW
B10: APBB1 (protein, UniProt O00213 1-710, looked up)
Amyloid beta precursor …: MSVPSSLSQSAINANSHGGPALSLPLPLHAAHNQLLNAKLQATAVGPKDLRSAMGEGGGPEPGPANAKWLKEGQNQLRRAATAHRDQNRNVTLTLAEEASQEPEMAPLGPKGLIHLYSELELSAHNAANRGLRGPGLIISTQEQGPDEGEEKAAGEAEEEEEDDDDEEEEEDLSSPPGLPEPLESVEAPPRPQALTDGPREHSKSASLLFGMRNSAASDEDSSWATLSQGSPSYGSPEDTDSFWNPNAFETDSDLPAGWMRVQDTSGTYYWHIPTGTTQWEPPGRASPSQGSSPQEESQLTWTGFAHGEGFEDGEFWKDEPSDEAPMELGLKEPEEGTLTFPAQSLSPEPLPQEEEKLPPRNTNPGIKCFAVRSLGWVEMTEEELAPGRSSVAVNNCIRQLSYHKNNLHDPMSGGWGEGKDLLLQLEDETLKLVEPQSQALLHAQPIISIRVWGVGRDSGRERDFAYVARDKLTQMLKCHVFRCEAPAKNIATSLHEICSKIMAERRNARCLVNGLSLDHSKLVDVPFQVEFPAPKNELVQKFQVYYLGNVPVAKPVGVDVINGALESVLSSSSREQWTPSHVSVAPATLTILHQQTEAVLGECRVRFLSFLAVGRDVHTFAFIMAAGPASFCCHMFWCEPNAASLSEAVQAACMLRYQKCLDARSQASTSCLPAPPAESVARRVGWTVRRGVQSLWGSLKPKRLGAHTP

Tested on: HEK293FT cells transfected with TF library
Assay: Screening of TF condensates based on fluorescent puncta
Assay type: cell-based
Details: Figure 1B numerical data; TF library screen, one value per transcriptional factor
How it was run: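 Cells were seeded onto plasmid/PEI-loaded wells (plasmid 1.6 μg/ml final) and grown 60 h. Medium with or without glucose followed for 12 h. Fixed, permeabilized cells were stained against Flag or GAL4 tags, and condensate puncta were quantified from 50 random fields per well.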

| Molecule | Z score of condensed fraction |
| --- | --- |
| B1 | 3.206 |
| B2 | -0.6859 |
| B3 | -0.3888 |
| B4 | 0.2732 |
| B5 | 0.9737 |
| B6 | -0.5188 |
| B7 | 0.06864 |
| B8 | -0.874 |
| B9 | 0.02684 |
| B10 | 2.844 |

— publication PMC11574045, “A cofactor-induced repressive type of transcription factor condensation can be induced by synthetic peptides to suppress tumorigenesis” (The EMBO Journal, 2024)
